In article doi:10.1101/2021.09.23.461563:
pKd: −log10 of the molar value.

What was measured:
[1] = target: GST-ErpQ (Borrelia burgdorferi strain B31); assay: SPR
[2] = target: GST-ErpB (Borrelia burgdorferi strain B31); assay: SPR
[3] = target: C1r enzyme (activated form of human C1r) (human) (UniProt P00736); assay: ELISA
[4] = target: C1s enzyme (activated form of human C1s) (human) (UniProt P09871); assay: ELISA
[5] = target: human C1 complex (C1qC1r2C1s2) (human) (UniProt P02745); assay: ELISA
Chain of human C1 complex (C1qC1r2C1s2) (human) (P02745 whole entry, looked up, one chain of several): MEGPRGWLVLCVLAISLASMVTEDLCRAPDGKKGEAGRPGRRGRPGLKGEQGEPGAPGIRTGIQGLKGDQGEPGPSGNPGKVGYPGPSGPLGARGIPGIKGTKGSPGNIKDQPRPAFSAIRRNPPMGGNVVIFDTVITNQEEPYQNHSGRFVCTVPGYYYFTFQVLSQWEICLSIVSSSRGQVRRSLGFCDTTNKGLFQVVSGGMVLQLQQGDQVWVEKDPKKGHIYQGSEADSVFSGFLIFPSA

Chain of C1r enzyme (activated form of human C1r) (human) (P00736 18-463, chain 1 of 2): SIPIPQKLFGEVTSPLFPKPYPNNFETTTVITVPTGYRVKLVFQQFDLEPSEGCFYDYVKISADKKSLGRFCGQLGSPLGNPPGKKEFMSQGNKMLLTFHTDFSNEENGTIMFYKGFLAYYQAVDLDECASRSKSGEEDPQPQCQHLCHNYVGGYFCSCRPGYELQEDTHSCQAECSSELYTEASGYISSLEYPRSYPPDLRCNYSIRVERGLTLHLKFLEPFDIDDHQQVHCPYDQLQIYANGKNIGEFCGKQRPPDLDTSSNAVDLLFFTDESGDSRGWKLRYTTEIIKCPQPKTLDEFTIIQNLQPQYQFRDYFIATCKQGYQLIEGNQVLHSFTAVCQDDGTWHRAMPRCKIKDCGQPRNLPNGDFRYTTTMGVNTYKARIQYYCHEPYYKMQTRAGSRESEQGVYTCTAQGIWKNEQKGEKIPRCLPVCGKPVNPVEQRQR
Chain of C1r enzyme (activated form of human C1r) (human) (P00736 464-705, chain 2 of 2): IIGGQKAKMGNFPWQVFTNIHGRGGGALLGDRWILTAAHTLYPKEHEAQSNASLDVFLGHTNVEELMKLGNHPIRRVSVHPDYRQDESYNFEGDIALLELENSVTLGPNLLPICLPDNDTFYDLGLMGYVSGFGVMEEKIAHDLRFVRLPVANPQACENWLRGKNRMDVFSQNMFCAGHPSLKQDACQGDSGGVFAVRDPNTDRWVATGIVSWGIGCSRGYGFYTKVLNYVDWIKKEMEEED
Chain of C1s enzyme (activated form of human C1s) (human) (P09871 16-437, chain 1 of 2): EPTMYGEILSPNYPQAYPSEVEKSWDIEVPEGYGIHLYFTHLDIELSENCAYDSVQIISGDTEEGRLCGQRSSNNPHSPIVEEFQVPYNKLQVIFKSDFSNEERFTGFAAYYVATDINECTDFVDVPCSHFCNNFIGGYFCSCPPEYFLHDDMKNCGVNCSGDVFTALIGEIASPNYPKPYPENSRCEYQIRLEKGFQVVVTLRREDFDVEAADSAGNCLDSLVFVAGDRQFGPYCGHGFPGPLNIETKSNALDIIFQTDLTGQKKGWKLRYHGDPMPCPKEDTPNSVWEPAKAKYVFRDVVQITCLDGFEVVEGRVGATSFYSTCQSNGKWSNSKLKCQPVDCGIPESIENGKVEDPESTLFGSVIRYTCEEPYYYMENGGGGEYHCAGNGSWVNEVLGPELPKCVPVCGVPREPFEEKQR
Chain of C1s enzyme (activated form of human C1s) (human) (P09871 438-688, chain 2 of 2): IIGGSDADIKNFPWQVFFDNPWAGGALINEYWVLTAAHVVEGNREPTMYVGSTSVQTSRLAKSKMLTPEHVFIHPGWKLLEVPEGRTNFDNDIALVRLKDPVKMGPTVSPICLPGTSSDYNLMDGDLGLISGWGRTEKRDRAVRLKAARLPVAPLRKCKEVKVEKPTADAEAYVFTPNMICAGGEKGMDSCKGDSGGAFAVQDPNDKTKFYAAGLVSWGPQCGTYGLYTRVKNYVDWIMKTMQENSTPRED
Chain of human C1 complex (C1qC1r2C1s2) (P02746 whole entry, looked up): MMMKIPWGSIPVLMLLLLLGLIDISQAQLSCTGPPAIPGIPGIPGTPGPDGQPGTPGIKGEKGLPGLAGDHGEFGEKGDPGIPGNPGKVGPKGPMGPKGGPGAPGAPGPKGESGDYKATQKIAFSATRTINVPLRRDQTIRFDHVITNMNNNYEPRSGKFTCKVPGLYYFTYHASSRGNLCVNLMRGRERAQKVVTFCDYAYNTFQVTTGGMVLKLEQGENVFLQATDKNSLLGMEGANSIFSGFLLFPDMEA
Chain of human C1 complex (C1qC1r2C1s2) (P02747 whole entry, looked up): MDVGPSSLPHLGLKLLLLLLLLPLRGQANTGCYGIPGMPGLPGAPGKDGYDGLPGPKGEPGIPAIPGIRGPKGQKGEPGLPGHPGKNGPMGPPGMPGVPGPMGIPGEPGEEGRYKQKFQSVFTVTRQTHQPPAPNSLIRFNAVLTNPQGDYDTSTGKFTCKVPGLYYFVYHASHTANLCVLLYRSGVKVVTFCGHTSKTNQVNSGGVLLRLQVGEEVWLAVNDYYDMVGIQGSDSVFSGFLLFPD
Chain of human C1 complex (C1qC1r2C1s2) (P02745 whole entry, looked up): as the sequence (P02745 whole entry, looked up, one chain of several) above

Substance	pKd [1]	pKd [2]	pKd [3]	pKd [4]	pKd [5]
C1s proenzyme (human)	6.77	6.57	–	–	–
GST-ErpB (natural protein)	–	–	7.39	8.17	8.47
GST-ErpQ (natural protein)	–	–	7.96	8.33	8.42
human C1 complex (C1qC1r2C1s2) (from UniProt P02745 23-245; P02746 28-253; P02747 29-245)	–	8.25	–	–	–
